Consider 2 proteins from patent publication US20240109958.

For this data set, the target named is Ub vinyl sulfone HA-tagged probe (Ub-VS-HA; Cat #U-212, Boston Biochem), P0CG48.
Sequence of Ub vinyl sulfone HA-tagged probe (Ub-VS-HA; Cat #U-212, Boston Biochem), P0CG48 (P0CG48 whole entry, looked up): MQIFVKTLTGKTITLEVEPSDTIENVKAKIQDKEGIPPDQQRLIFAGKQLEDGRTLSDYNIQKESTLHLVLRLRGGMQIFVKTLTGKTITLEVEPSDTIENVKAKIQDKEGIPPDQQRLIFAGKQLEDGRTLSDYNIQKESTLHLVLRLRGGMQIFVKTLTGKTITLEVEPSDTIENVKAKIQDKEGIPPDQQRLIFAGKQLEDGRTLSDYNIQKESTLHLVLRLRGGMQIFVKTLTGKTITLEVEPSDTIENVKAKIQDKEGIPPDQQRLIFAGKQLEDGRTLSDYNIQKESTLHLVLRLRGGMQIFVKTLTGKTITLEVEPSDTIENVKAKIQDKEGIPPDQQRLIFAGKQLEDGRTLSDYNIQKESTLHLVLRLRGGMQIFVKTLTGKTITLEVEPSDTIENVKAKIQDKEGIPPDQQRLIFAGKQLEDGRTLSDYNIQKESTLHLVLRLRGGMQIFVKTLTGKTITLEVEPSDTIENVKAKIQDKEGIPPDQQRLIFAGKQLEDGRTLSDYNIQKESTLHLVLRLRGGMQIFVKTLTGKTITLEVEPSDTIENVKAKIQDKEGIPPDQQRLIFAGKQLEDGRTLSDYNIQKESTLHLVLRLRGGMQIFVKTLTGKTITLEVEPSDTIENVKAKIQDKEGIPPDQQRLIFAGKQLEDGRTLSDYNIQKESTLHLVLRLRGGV

B1: wild-type UCHL1 (UCHL1^WT), C-terminal 6-His tag (protein)
chain: MQLKPMEINPEMLNKVLSRLGVAGQWRFVDVLGLEEESLGSVPAPACALLLLFPLTAQHENFRKKQIEELKGQEVSPKVYFMKQTIGNSCGTIGLIHAVANNQDKLGFEDGSVLKQFLSETEKMSPEDRAKCFEKNEAIQAAHDAVAQEGQCRVDDKVNFHFILFNNVDGHLYELDGRMPFPVNHGASSEDTLLKDAAKVCREFTEREQGEVRFSAVALCHHHHHH
For the protein B1, the “modification by the suicide probe Ub-VS (immunoblot)” value is given as “UCHL1^WT readily reacted with Ub-VS, nearing completion after 30 minutes”.

B2: wild-type UCHL5 (UCHL5^WT), C-terminal 6-His tag (protein)
chain: MTGNAGEWCLMESDPGVFTELIKGFGCRGAQVEEIWSLEPENFEKLKPVHGLIFLFKWQPGEEPAGSVVQDSRLDTIFFAKQVINNACATQAIVSVLLNCTHQDVHLGETLSEFKEFSQSFDAAMKGLALSNSDVIRQVHNSFARQQMFEFDTKTSAKEEDAFHFVSYVPVNGRLYELDGLREGPIDLGACNQDDWISAVRPVIEKRIQKYSEGEIRFNLMAIVSDRKMIYEQKIAELQRQLAEEEPMDTDQGNSMLSAIQSEVAKNQMLIEEEVQKLKRYKIENIRRKHNYLPFIMELLKTLAEHQQLIPLVEKAKEKQNAKKAQETKHHHHHH
In the case of B2, the “modification by the suicide probe Ub-VS (immunoblot)” value is recorded as “UCHL5^WT was only partially modified at 30 minutes”.
